Laboratory results reported in article PMC4499191.
One block for each molecule: values may come before it.

Tests used:
[1] = target: Nck1 (Nck1-GFP, GST-Nck1 constructs) SH2 domain (UniProt P16333); experiment: GST-Nck SH2 pull-down from lysate; settings: reference: wild type
GST-Nck SH2, P16333 = target: T1, GST-Nck SH2, P16333; experiment: GST pull-down, anti-HA immunoblot quantified by ImageJ; settings: chain shown with the change; 293T cells transiently transfected with Lck and HA-tagged TSAd constructs; lane 7
T1 chain: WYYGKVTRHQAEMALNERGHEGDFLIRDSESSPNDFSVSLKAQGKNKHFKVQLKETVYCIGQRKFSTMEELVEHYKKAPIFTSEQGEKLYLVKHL

binding against the reference ([1]; sites Y280,Y305): lost
Molecule: TSAd (T cell specific adaptor protein) (from UniProt Q9NP31) Y280,305F

binding against the reference ([1]; sites Y280): weaker
Molecule: TSAd (T cell specific adaptor protein) (from UniProt Q9NP31) Y280F

ratio to parent (GST-Nck SH2, P16333): -0
B1: HA-tagged TSAd WT co-expressed with Lck in 293T cells (tyrosine phosphorylated), Q9NP31-1 Y280F; Y290F; Y305F (protein)
chain: MEFPLAQICPQGSHEAPIPTFSTFQITDMTRRSCQNLGYTAASPQAPEAASNTGNAERAEEVPGEGSLFLQAETRAWFQKTQAHWLLQHGAAPAWFHGFITRREAERLLEPKPQGCYLVRFSESAVTFVLTYRSRTCCRHFLLAQLRDGRHVVLGEDSAHARLQDLLLHYTAHPLSPYGETLTEPLARQTPEPAGLSLRTEESNFGSKSQDPNPQYSPIIKQGQAPVPMQKEGAGEKEPSQLLRPKPPIPAKPQLPPEVYTIPVPRHRPAPRPKPSNPIFNEPDEPIAFFAMGRGSPGEAPSNIFVEVEDEGLPATLGHPVLRKSWSRPVPGGQNTGGSQLHSENSVIGQGPPLPHQPPPAWRHTLPHNLSRQVLQDRGQAWLPLGPPQ
